Data from US20060241020A1, “Protein tyrosine phosphatase inhibitors” (Applied Research Systems ARS Holdings N.V., priority 2002, published 2006).
Positions count from the first letter of the chain named. Entries after “also recorded” stand apart in the source; their conditions may differ. Square brackets hold non-standard residues; d marks the D form. Ends that are not written are not given here. pY = N[C@@H](Cc1ccc(OP(=O)(O)O)cc1)C(=O)O

Tests used:
[1] = molecular target: T1, PTP-1B DA (trapping mutant) (Homo sapiens, UniProt P18031, D181A); experiment: SPOT analysis, membrane peptides probed with radiolabeled PTP; format: binding; conditions: for SPOT binding to PTP1B trapping mutant: 15-mer peptides with phospho-Tyr on membrane; for SPOT binding to PTP1B trapping mutant, double phosphorylated peptide: two phosphorylated Tyr, compared with single ones
T1 construct: specific primers corresponding to the beginning and the end of the catalytic domain of every PTPs were used; made in house; host or cells: Escherichia coli BL21 (codon +)
T1 sequence (P18031 3-277 D181A limits assumed): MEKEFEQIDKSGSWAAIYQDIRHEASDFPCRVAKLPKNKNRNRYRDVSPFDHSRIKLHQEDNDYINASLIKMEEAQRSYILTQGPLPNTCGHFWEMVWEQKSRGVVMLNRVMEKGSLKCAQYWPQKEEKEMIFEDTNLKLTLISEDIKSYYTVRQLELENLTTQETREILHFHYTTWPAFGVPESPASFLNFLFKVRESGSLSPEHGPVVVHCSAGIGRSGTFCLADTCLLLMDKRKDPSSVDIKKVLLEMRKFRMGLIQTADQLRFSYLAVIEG
Procedure: (§1) Labelling of GST-PTP for the SPOT analysis was performed as follows: 2 to 5 μg of GST fusion proteins were bound to glutathion-sepharose beads (Amersham Pharmacia Biotech) at 4° C. After washes GST fusion proteins were radiolabeled by 50 units of protein kinase from bovine heart (Sigma) in presence of 35 μCi of (γ-32P) ATP in PKA buffer (20 mM Tris pH 7.5, 100 mM NaCl, 12 mM MgCl2, 1 mM DTT) for 30 minutes on ices. After washes, fusion proteins were eluted from beads by 10 mM free glutathione in 50 mM Tris, pH 8.0 (28).
(§2) Peptides were manually synthesized on derivatized cellulose membrane provided by Sigma-Genosys, which also provided the 20 Fmoc-amino acids active esters. Fmoc-phosphotyrosines from Novabiochem (#04-12-1156) were incorporated in presence of the coupling reagent, N,N′-Diisopropylcarbodiimide (DIC; Sigma) and hydroxybenzotriale (HOBt; Fluka; Espanel et al., submitted).
(§3) Membranes were blocked (at least 2 hours) and probed at 4° C. in Western wash buffer (10 mM Tris, pH 7.4, 0.1% Triton X-100 and 150 mM NaCl)+SPOT blocking buffer (Sigma-Genosys). After 2 hours, membranes were washed several times in Western wash buffer and were autoradiographed.

[2] = molecular target: SHP1 (Homo sapiens, UniProt P29350); conditions: reference (40); cited from earlier work
[3] = test system: PTP-Sap1 R88N; experiment: SPOT analysis, membrane peptides probed with radiolabeled PTP; format: binding; conditions: 15-mer peptides with phosphotyrosine on membrane
Procedure: as §1, §2, §3

[4] = molecular target: T2, PTP-Sap1DA (Homo sapiens, UniProt Q9HD43, D986A); experiment: as above; format: binding
T2 construct: specific primers corresponding to the beginning and the end of the catalytic domain of every PTPs were used; made in house; host or cells: Escherichia coli BL21 (codon +)
T2 sequence (Q9HD43 820-1079 D986A limits assumed): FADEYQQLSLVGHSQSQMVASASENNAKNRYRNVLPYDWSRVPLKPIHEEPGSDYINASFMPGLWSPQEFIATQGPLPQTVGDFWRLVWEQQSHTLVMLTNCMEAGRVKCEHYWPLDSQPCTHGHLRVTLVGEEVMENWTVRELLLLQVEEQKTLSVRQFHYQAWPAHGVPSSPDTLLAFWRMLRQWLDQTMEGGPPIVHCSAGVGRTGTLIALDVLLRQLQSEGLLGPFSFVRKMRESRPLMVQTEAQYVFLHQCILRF
Procedure: as §1, §2, §3

[5] = molecular target: T3, Sap1 (Homo sapiens, UniProt Q9HD43); experiment: Km of example phosphopeptide substrates (Table IX summary); format: biochemical; conditions: phosphopeptide as Sap1 substrate
T3 sequence (Q9HD43 820-1079 limits assumed): T2 sequence (Q9HD43 820-1079 D986A limits assumed) with A167D

[6] = molecular target: T4, PTP-Sap1 (Homo sapiens, UniProt Q9HD43, D986A); experiment: Panning of the tyrosine-biased phage library and sequencing of trapped clones; format: binding; conditions: after three rounds, sequenced trapped phages
T4 construct: These two restriction sites were used to clone the catalytic domain in frame into a pGEX4TK vector (Pharmacia); made in house; host or cells: Escherichia coli BL21 (codon +)
T4 sequence (Q9HD43 820-1079 D986A limits assumed): T2 sequence (Q9HD43 820-1079 D986A limits assumed)
Procedure: (§4) Phages (10^9-10^10) were incubated for three hours at 30° C. in the kinase buffer (25 mM Tris pH7.5, 5 mM MgCl2, 2.5 mM MnCl2, 2.5 mM DTT and 1 mM ATP) in a total volume of 20 μl. […] Therefore, the total library was phosphorylated and passed through an antiPTyr column (Upstate). The bound phages were eluted with phenylphosphate, and the clones were passed twice again in the column. The amplified Tyrosine-carrying phages were then stocked at 4° C. in TE and used for the trapping experiment (see below). […] Furthermore, no sequences were found twice. […] This was checked following our phosphorylation protocol and using (γ-32P) ATP as a tracer.
(§5) Phages (10^8 to 10^9) were incubated in kinase buffer (20 mM Tris pH7.5, 5 mM MgCl2, 2.5 mM MnCl2, 1 mM ATP, 2.5 mM DTT and with or without 3 Units of src kinase) for 3 hours at 30° C. The p60src, purified from Baculovirus, was purchased from Upstate Biotech. Gluthation-Sepharose beads were pre-coated with 3 μg of either GST or PTP-GST for 4 hours at 4° C. in a solution of Trapping Buffer (20 mM Tris pH 7.5, 150 mM NaCl and 1 mM EDTA) with 1% BSA final. The phages were first pre-cleared using GST-beads for 30 minutes at 4° C., spun down and the supernatant was incubated with the coated PTP-GST for 1.5 hours at 4° C. with a constant shaking. Finally beads were spun down and washed several times (5 times for the first panning, then 10 times) with a solution of PBS with 0.25% Tween® final. Phages were eluted from PTP-GST by an acidic treatment (glycine buffer, pH 2.7) for 10 minutes at RT with a constant shaking, beads were spun down and phages were recovered in the supernatant. One tenth volume of a 1 M Tris pH 9.0 solution was added in order to restore the pH. Phages were finally titred in both fractions (bound and unbound) and the rest of the bound fraction was used to infect XL1 MRF′ Bacteria (Stratagene) following described procedures (24). The day after, cells were scraped and phages were amplified using helper phage M13K07 (Pharmacia) using the manufacturer's procedures.
(§6) When an increase in the number of trapped clones was observed, phages where purified as single clones and colony-PCR was performed using phage primers, forward: 5′ATG AAA AAG TCT TTA GTC CTC3′ and reverse: 5′CAG CTT GAT ACC GAT AGT TGC3′. The PCR products were then purified and sequenced using the same primers. Sequences were read in both direction using SeqmanII Software.

[7] = molecular target: T4, PTP-Sap1; experiment: ELISA of phosphorylated phage clones on coated GST-PTP; format: binding; conditions: PTP-Sap1 selected phage clones, src-phosphorylated
Procedure: (§7) Single clones were amplified as described previously. The coating was done with GST-PTP or GST alone in PBS (2 μg per well in a 96 well plate format). Phosphorylation of the phages was performed following the described protocol (with and without 3 U of src kinase, in order to check the phospho-Tyr specificity of the recognition, thus be sure that positives were catalytic domain specific as shown in (30)) and during this process, each well was blocked with a solution of 5% fat free powder milk in PBS. Wells were washed 5 times in PBS-Tween® 0.5% and phages were incubated with the PTP-GST or GST in 100 μl Trapping Buffer (20 mM Tris pH 7.5, 150 mM NaCl and 1 mM EDTA) for 2 hours at 4° C. Wells were extensively washed and blocked for 1 hour in PBS-5% Milk.

[8] = molecular target: T5, PTP1B trapping mutant (Homo sapiens, UniProt P18031, D181A); experiment: Panning of the tyrosine-biased phage library and sequencing of trapped clones; format: binding; conditions: after three pannings, sequenced trapped phages
T5 construct: These two restriction sites were used to clone the catalytic domain in frame into a pGEX4TK vector (Pharmacia); made in house; host or cells: Escherichia coli BL21 (codon +)
T5 sequence (P18031 3-277 D181A limits assumed): T1 sequence (P18031 3-277 D181A limits assumed)
Procedure: as §4, §5, §6

[9] = molecular target: T5, PTP1B trapping mutant; experiment: ELISA of phosphorylated phage clones on coated GST-PTP; format: binding; conditions: PTP1B selected phage clones, src-phosphorylated
Procedure: as §7

[10] = molecular target: T6, WT PTP1B (Homo sapiens, UniProt P18031); experiment: Dephosphorylation assay on GST-PEP constructs; format: biochemical; conditions: not shown
T6 construct: These two restriction sites were used to clone the catalytic domain in frame into a pGEX4TK vector (Pharmacia); GST (N); made in house; host or cells: Escherichia coli BL21 (codon +)
T6 sequence (P18031 3-277 limits assumed): T1 sequence (P18031 3-277 D181A limits assumed) with A179D
Procedure: PEP-GST constructs were prepared as follows: the primers used correspond to the pVIII capsid sequence of M13+two restriction sites (XhoI and NotI): 5′TATCTCGAGTCTTTCGCTGCTGAGGGT GA3′ for the sense and 5′ATAGCGGCCGCTTGCAGGGAGTCAAAGGCC G3′ for the antisense. The DNA of the phage was directly amplified by adding 10^9 phages to the PCR mix. After PCR using Herculase Polymerase (Stratagene), the DNA fragments (100 bp) were purified using Microcon® PCR (Millipore) and gel extraction was performed with Utrafree®-DA (Millipore). The cloning and the protein purification were finally accomplished following the same protocol as for the PTPs, with the only difference that TKB1 (Stratagene) bacteria were transformed and a single colony was grown and induced for protein production and phosphorylation exactly as described by the manufacturer. Again, all constructs were checked by DNA sequencing before protein production.
100 ng of PEP-GST construct was incubated with 10 ng of PTP wild type in PTP buffer (50 mM Hepes pH 7.4, 0.05% Nonidet NP-40 and 1 mM DTT). The reaction was stopped by mixing equal volume aliquots with a solution of 50 mM vanadate at different laps of time. […]

Chain of SHP1 (P29350 whole entry): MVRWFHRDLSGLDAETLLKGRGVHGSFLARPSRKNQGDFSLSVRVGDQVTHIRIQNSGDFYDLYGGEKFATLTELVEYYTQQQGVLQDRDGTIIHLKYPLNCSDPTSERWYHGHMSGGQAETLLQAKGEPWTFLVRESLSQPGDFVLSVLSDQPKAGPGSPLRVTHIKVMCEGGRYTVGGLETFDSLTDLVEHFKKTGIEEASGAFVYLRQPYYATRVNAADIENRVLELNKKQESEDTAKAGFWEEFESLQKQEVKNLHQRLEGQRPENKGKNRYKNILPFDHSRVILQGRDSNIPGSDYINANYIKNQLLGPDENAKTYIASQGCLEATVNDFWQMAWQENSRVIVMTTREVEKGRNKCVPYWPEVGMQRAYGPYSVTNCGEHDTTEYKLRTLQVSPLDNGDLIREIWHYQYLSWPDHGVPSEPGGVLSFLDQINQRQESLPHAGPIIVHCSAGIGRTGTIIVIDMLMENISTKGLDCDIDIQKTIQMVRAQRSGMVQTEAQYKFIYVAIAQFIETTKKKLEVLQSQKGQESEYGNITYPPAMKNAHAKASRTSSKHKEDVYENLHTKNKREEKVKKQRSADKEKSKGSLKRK

EFpYGTFAPKPLDPAK (EF[pY]GTFAPKPLDPAK) [Clone 1b-13]
SPOT binding to PTP1B trapping mutant [1]: signal is weaker

O.O.O.O.O.O.O.O.O.O=C([O-])[C@@H]1[O][Sb]2([O-])([O][Sb]34([OH])[O][C@H]([C@H](O)CO)[C@H]([O]3)[C@H](C(=O)[O-])[O]4)[O][C@H]([C@H](O)CO)[C@@H]1[O]2.[Na+].[Na+].[Na+] [sodium stibogluconate]
Inhibition of SHP1 [2]: strongly inhibits

EFGATpYGVYTSDPAK (EFGAT[pY]GVYTSDPAK) [Sm-2]
SPOT binding to PTP-Sap1 R88N [3]: strongest signals

EFATpYEEYALMDPAK (EFAT[pY]EEYALMDPAK) [Clone 1b-12]
SPOT binding to PTP1B trapping mutant, double phosphorylated peptide [1]: did not seem to react as well as single ones

EFpYGQFpYGPPQDPAK (EF[pY]GQF[pY]GPPQDPAK) [x2]
SPOT binding to PTP-Sap1DA ([4]; 15-mer peptides with phosphotyrosine on membrane): comparable SPOT results for both phosphorylated Tyrosines

EFpYGAFA/G (chain 1 EF[pY]GAFA; chain 2 EF[pY]GAFG)
Km [5]: 7 µM

EFpYGTFAQSAEDPAK (EF[pY]GTFAQSAEDPAK) [x9]
Copy in the pool [6]: 3X

EFLpYANVERSSDPAK (EFL[pY]ANVERSSDPAK) [Sm-8]
SPOT binding to PTP-Sap1 R88N [3]: did not bind | SPOT binding to PTP-Sap1 R88N ([3]; listed as sm-8): not recognized

EFpYGPVASDASDPAK (EF[pY]GPVASDASDPAK) [x58]
ELISA [7]: recognized in ELISA

EFpYGTYRGQDSDPAK (EF[pY]GTYRGQDSDPAK) [Clone 1b-14]
Copy in the pool [8]: 2×

EFIpYGSFHQTADPAK (EFI[pY]GSFHQTADPAK) [Sm-15]
SPOT binding to PTP-Sap1 R88N [3]: strongest signals

EFQSPVpYGNFADPAK (EFQSPV[pY]GNFADPAK) [Clone 1b-11]
SPOT binding to PTP1B trapping mutant [1]: All except two sequences (1b-6 and 1b11) were recognized

EFpYGAYSNADLDPAK (EF[pY]GAYSNADLDPAK) [x5]
SPOT binding to PTP-Sap1DA, doubly phosphorylated ([4]; doubly phosphorylated sequence): weaker signal | ELISA [7]: strongest | Copy in the pool [6]: 2X

EFpYNLYEGVMSDPAK (EF[pY]NLYEGVMSDPAK) [Clone 1b-9]
SPOT binding to PTP1B trapping mutant [1]: confirmed in SPOT | ELISA [9]: not found in ELISA

EFpYATYGSAATDPAK (EF[pY]ATYGSAATDPAK) [Clone 1b-1]
SPOT binding to PTP1B trapping mutant, double phosphorylated peptide [1]: did not seem to react as well as single ones | Dephosphorylation of displayed peptide (GST fusion) by WT PTP1B [10]: can dephosphorylate the displayed peptide | Copy in the pool [8]: 4×

EFQpYZGEYTRGDPAK (EFQ[pY]XGEYTRGDPAK; not fully specified (residue 5)) [Clone 1b-4]
SPOT binding to PTP1B trapping mutant [1]: confirmed in SPOT; also recorded: best substrate in this assay | SPOT binding to PTP1B trapping mutant, double phosphorylated peptide [1]: binding became more efficient | ELISA [9]: not found in ELISA

EFEPIpYNAYQVDPAK (EFEPI[pY]NAYQVDPAK) [Clone 1b-6]
SPOT binding to PTP1B trapping mutant [1]: All except two sequences (1b-6 and 1b11) were recognized

EFpYGQIGDHLVDPAK (EF[pY]GQIGDHLVDPAK) [Sm-11]
SPOT binding to PTP-Sap1 R88N [3]: strongest signals
